This is an account of results in the supplement of paper PMC6755084.

The labels stand for the following.
B1: F1*; a variant is named by its letters at N, in order (parent)
chain: GAGACCGCAACTGAAAAGTTGTTATCNNNNNNNNAANNNNNTTNGNNGGGTTGAAGTTCTGCACGTAGAAGCAAAAGGC

In the data set the parent is B1. The experiment in a line: fraction ligated after 30 min (ligated reads / total reads); higher = more ligase activity. The conditions noted are these: with F1*sub RNA substrate (template-directed ligation), 42 °C. As for the experimental part: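 Chip-synthesised pool of F1* ligase ribozyme variants (all single and double substitutions, single, double and triple deletions in the catalytic core and GAA bulge, plus designed variants) was transcribed with T7 and reacted as a pool with excess substrate F1*sub for 30 min at 42 C in 50 mM EPPS pH 8.5, 25 mM MgCl2. Ligated and unligated bands were separated by PAGE, barcoded by RT and deep sequenced; fraction ligated = ligated reads / total reads per variant, relative activity = FL / FL of wild type (0.826). Sequences are the DNA template of the ribozyme.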
As for GAGACCGCAACTGAAAAGTTGTTATCACTTGTCTAAGACACTTTGGTGGGTTGAAGTTCTGCACGTAGAAGCAAAAGGC, the fraction ligated worked out at 0.285. With GAGACCGCAACTGAAAAGTTGTTATCACTTGTCTAAGACACTTTGGAGGGTTGAAGTTCTGCACGTAGAAGCAAAAGGC the figure was 0.169; with GAGACCGCAACTGAAAAGTTGTTATCACTTGCGTAAGACCTTTGGATGGGTTGAAGTTCTGCACGTAGAAGCAAAAGGC, 0.815; with GAGACCGCAACTGAAAAGTTGTTATCACTTTCGTAAGACACTTTGGTGGGTTGAAGTTCTGCACGTAGAAGCAAAAGGC, 0.0695. In the case of GAGACCGCAACTGAAAAGTTGTTATCACTTTCGTAAGACACTTTGGAGGGTTGAAGTTCTGCACGTAGAAGCAAAAGGC, the fraction ligated stood at 0.0557.

On to GAGACCGCAACTGAAAAGTTGTTATCACTTGTCGAAGACACTTTGATGGGTTGAAGTTCTGCACGTAGAAGCAAAAGGC, for which the fraction ligated was 0.769.

As for GAGACCGCAACTGAAAAGTTGTTATCACTTGTCTAAGACATTTGGATGGGTTGAAGTTCTGCACGTAGAAGCAAAAGGC, the fraction ligated came out at 0.834. With GAGACCGCAACTGAAAAGTTGTTATCACTGTCGTAAACACTTTGGATGGGTTGAAGTTCTGCACGTAGAAGCAAAAGGC the figure was 0.84. Then GAGACCGCAACTGAAAAGTTGTTATCACTTGTCTAAGACACTTTGATGGGTTGAAGTTCTGCACGTAGAAGCAAAAGGC, with 0.775; and GAGACCGCAACTGAAAAGTTGTTATCACTTGCGTAAGACACTTTGGTGGGTTGAAGTTCTGCACGTAGAAGCAAAAGGC, with 0.143. With GAGACCGCAACTGAAAAGTTGTTATCACTTGCGTAAGACACTTTGGAGGGTTGAAGTTCTGCACGTAGAAGCAAAAGGC the figure was 0.128. For GAGACCGCAACTGAAAAGTTGTTATCACTTGTCGAAGACACTTTGGTGGGTTGAAGTTCTGCACGTAGAAGCAAAAGGC, the fraction ligated was 0.236. Then GAGACCGCAACTGAAAAGTTGTTATCACTTGTCGAAGACACTTTGGAGGGTTGAAGTTCTGCACGTAGAAGCAAAAGGC, with 0.15. With GAGACCGCAACTGAAAAGTTGTTATCACTTTCGTAAGAACTTTGGATGGGTTGAAGTTCTGCACGTAGAAGCAAAAGGC the figure was 0.873; with GAGACCGCAACTGAAAAGTTGTTATCACTTGTGTAAGACACTTTGGAGGGTTGAAGTTCTGCACGTAGAAGCAAAAGGC, 0.0628; with GAGACCGCAACTGAAAAGTTGTTATCATTGTCGTAAACACTTTGGATGGGTTGAAGTTCTGCACGTAGAAGCAAAAGGC, 0.799. Then GAGACCGCAACTGAAAAGTTGTTATCCTTGTCGTAAGAACTTTGGATGGGTTGAAGTTCTGCACGTAGAAGCAAAAGGC, with 0.809; and GAGACCGCAACTGAAAAGTTGTTATCATTGTCGTAAGACCTTTGGATGGGTTGAAGTTCTGCACGTAGAAGCAAAAGGC, with 0.79; and GAGACCGCAACTGAAAAGTTGTTATCACTGTCGTAAGACACTTTGATGGGTTGAAGTTCTGCACGTAGAAGCAAAAGGC, with 0.79. As for GAGACCGCAACTGAAAAGTTGTTATCACTTGTCGAAGACATTTGGATGGGTTGAAGTTCTGCACGTAGAAGCAAAAGGC, the fraction ligated is 0.831. With GAGACCGCAACTGAAAAGTTGTTATCACTTTCGTAAGACCTTTGGATGGGTTGAAGTTCTGCACGTAGAAGCAAAAGGC the figure was 0.773; with GAGACCGCAACTGAAAAGTTGTTATCACTGTCGTAAGACCTTTGGATGGGTTGAAGTTCTGCACGTAGAAGCAAAAGGC, 0.849.

As to GAGACCGCAACTGAAAAGTTGTTATCCTTGTCGTAAGACACTTTGGTGGGTTGAAGTTCTGCACGTAGAAGCAAAAGGC, the fraction ligated stood at 0.346. Then GAGACCGCAACTGAAAAGTTGTTATCCTTGTCGTAAGACACTTTGGAGGGTTGAAGTTCTGCACGTAGAAGCAAAAGGC, with 0.00758. Then GAGACCGCAACTGAAAAGTTGTTATCCTTGTCGTAAGACACTTGGATGGGTTGAAGTTCTGCACGTAGAAGCAAAAGGC, with 0.788; and GAGACCGCAACTGAAAAGTTGTTATCACTTGTCGAAGCACTTTGGATGGGTTGAAGTTCTGCACGTAGAAGCAAAAGGC, with 0.78; and GAGACCGCAACTGAAAAGTTGTTATCACTTGTGTAAGAACTTTGGATGGGTTGAAGTTCTGCACGTAGAAGCAAAAGGC, with 0.867. With GAGACCGCAACTGAAAAGTTGTTATCATTGTCGTAAGACATTTGGATGGGTTGAAGTTCTGCACGTAGAAGCAAAAGGC the figure was 0.811. For the variant GAGACCGCAACTGAAAAGTTGTTATCACTTGCGTAAGACACTTGGATGGGTTGAAGTTCTGCACGTAGAAGCAAAAGGC, the fraction ligated is 0.801. With GAGACCGCAACTGAAAAGTTGTTATCACTTGTCTAAGACACTTGGATGGGTTGAAGTTCTGCACGTAGAAGCAAAAGGC the figure was 0.786; with GAGACCGCAACTGAAAAGTTGTTATCACTGTCGTAAGACACTTTGGTGGGTTGAAGTTCTGCACGTAGAAGCAAAAGGC, 0.694. With GAGACCGCAACTGAAAAGTTGTTATCACTGTCGTAAGACACTTTGGAGGGTTGAAGTTCTGCACGTAGAAGCAAAAGGC the figure was 0.13. With GAGACCGCAACTGAAAAGTTGTTATCATTGTCGTAAGACACTTTGATGGGTTGAAGTTCTGCACGTAGAAGCAAAAGGC the figure was 0.776; with GAGACCGCAACTGAAAAGTTGTTATCACTTGTGTAAGCACTTTGGATGGGTTGAAGTTCTGCACGTAGAAGCAAAAGGC, 0.875; with GAGACCGCAACTGAAAAGTTGTTATCACTTTCGTAAGACACTTTGATGGGTTGAAGTTCTGCACGTAGAAGCAAAAGGC, 0.793. As for GAGACCGCAACTGAAAAGTTGTTATCACTTGTGTAAACACTTTGGATGGGTTGAAGTTCTGCACGTAGAAGCAAAAGGC, the fraction ligated came out at 0.86. With GAGACCGCAACTGAAAAGTTGTTATCACTTGTCTAAGACCTTTGGATGGGTTGAAGTTCTGCACGTAGAAGCAAAAGGC the figure was 0.783; with GAGACCGCAACTGAAAAGTTGTTATCACTGTCGTAAGACACTTGGATGGGTTGAAGTTCTGCACGTAGAAGCAAAAGGC, 0.812; with GAGACCGCAACTGAAAAGTTGTTATCACTGTCGTAAGAACTTTGGATGGGTTGAAGTTCTGCACGTAGAAGCAAAAGGC, 0.858.

Turning to GAGACCGCAACTGAAAAGTTGTTATCACTTGCGTAAGAACTTTGGATGGGTTGAAGTTCTGCACGTAGAAGCAAAAGGC, the fraction ligated came to 0.85. With GAGACCGCAACTGAAAAGTTGTTATCACTTGTCTAAACACTTTGGATGGGTTGAAGTTCTGCACGTAGAAGCAAAAGGC the figure was 0.817; with GAGACCGCAACTGAAAAGTTGTTATCATTGTCGTAAGCACTTTGGATGGGTTGAAGTTCTGCACGTAGAAGCAAAAGGC, 0.777. With GAGACCGCAACTGAAAAGTTGTTATCACTGTCGTAAGCACTTTGGATGGGTTGAAGTTCTGCACGTAGAAGCAAAAGGC the figure was 0.833.

For the variant GAGACCGCAACTGAAAAGTTGTTATCACTGTCGTAAGACATTTGGATGGGTTGAAGTTCTGCACGTAGAAGCAAAAGGC, the fraction ligated turned out to be 0.846.

For GAGACCGCAACTGAAAAGTTGTTATCATTGTCGTAAGACACTTGGATGGGTTGAAGTTCTGCACGTAGAAGCAAAAGGC, the fraction ligated amounted to 0.806. With GAGACCGCAACTGAAAAGTTGTTATCACTTGTGTAAGACCTTTGGATGGGTTGAAGTTCTGCACGTAGAAGCAAAAGGC the figure was 0.844. Then GAGACCGCAACTGAAAAGTTGTTATCCTTGTCGTAAACACTTTGGATGGGTTGAAGTTCTGCACGTAGAAGCAAAAGGC, with 0.772; and GAGACCGCAACTGAAAAGTTGTTATCCTTGTCGTAAGACACTTTGATGGGTTGAAGTTCTGCACGTAGAAGCAAAAGGC, with 0.779; and GAGACCGCAACTGAAAAGTTGTTATCCTTGTCGTAAGCACTTTGGATGGGTTGAAGTTCTGCACGTAGAAGCAAAAGGC, with 0.776. Then GAGACCGCAACTGAAAAGTTGTTATCACTTGTGTAAGACACTTGGATGGGTTGAAGTTCTGCACGTAGAAGCAAAAGGC, with 0.807; and GAGACCGCAACTGAAAAGTTGTTATCACTTTCGTAAACACTTTGGATGGGTTGAAGTTCTGCACGTAGAAGCAAAAGGC, with 0.811. On to GAGACCGCAACTGAAAAGTTGTTATCACTTTCGTAAGACACTTGGATGGGTTGAAGTTCTGCACGTAGAAGCAAAAGGC, for which the fraction ligated came to 0.779. Then GAGACCGCAACTGAAAAGTTGTTATCACTTTCGTAAGCACTTTGGATGGGTTGAAGTTCTGCACGTAGAAGCAAAAGGC, with 0.8; and GAGACCGCAACTGAAAAGTTGTTATCACTTGCGTAAGCACTTTGGATGGGTTGAAGTTCTGCACGTAGAAGCAAAAGGC, with 0.856; and GAGACCGCAACTGAAAAGTTGTTATCACTTGTGTAAGACACTTTGATGGGTTGAAGTTCTGCACGTAGAAGCAAAAGGC, with 0.797.

With GAGACCGCAACTGAAAAGTTGTTATCACTTGCGTAAGACATTTGGATGGGTTGAAGTTCTGCACGTAGAAGCAAAAGGC, the fraction ligated turned out to be 0.847.

On to GAGACCGCAACTGAAAAGTTGTTATCCTTGTCGTAAGACCTTTGGATGGGTTGAAGTTCTGCACGTAGAAGCAAAAGGC, for which the fraction ligated was 0.786.

GAGACCGCAACTGAAAAGTTGTTATCACTTGTCGAAACACTTTGGATGGGTTGAAGTTCTGCACGTAGAAGCAAAAGGC: the fraction ligated was 0.822. Then GAGACCGCAACTGAAAAGTTGTTATCACTTGTCGAAGACACTTGGATGGGTTGAAGTTCTGCACGTAGAAGCAAAAGGC, with 0.775; and GAGACCGCAACTGAAAAGTTGTTATCATTGTCGTAAGACACTTTGGAGGGTTGAAGTTCTGCACGTAGAAGCAAAAGGC, with 0.12. With GAGACCGCAACTGAAAAGTTGTTATCATTGTCGTAAGACACTTTGGTGGGTTGAAGTTCTGCACGTAGAAGCAAAAGGC the figure was 0.583; with GAGACCGCAACTGAAAAGTTGTTATCACTTGCGTAAGACACTTTGATGGGTTGAAGTTCTGCACGTAGAAGCAAAAGGC, 0.802; with GAGACCGCAACTGAAAAGTTGTTATCACTTGTCGAAGACCTTTGGATGGGTTGAAGTTCTGCACGTAGAAGCAAAAGGC, 0.801. Then GAGACCGCAACTGAAAAGTTGTTATCACTTGTCTAAGAACTTTGGATGGGTTGAAGTTCTGCACGTAGAAGCAAAAGGC, with 0.787. Regarding GAGACCGCAACTGAAAAGTTGTTATCACTTGTCTAAGCACTTTGGATGGGTTGAAGTTCTGCACGTAGAAGCAAAAGGC, the fraction ligated was determined as 0.797. GAGACCGCAACTGAAAAGTTGTTATCACTTGTCGAAGAACTTTGGATGGGTTGAAGTTCTGCACGTAGAAGCAAAAGGC: the fraction ligated stood at 0.813.

For the variant GAGACCGCAACTGAAAAGTTGTTATCACTTGTGTAAGACATTTGGATGGGTTGAAGTTCTGCACGTAGAAGCAAAAGGC, the fraction ligated is 0.841. With GAGACCGCAACTGAAAAGTTGTTATCATTGTCGTAAGAACTTTGGATGGGTTGAAGTTCTGCACGTAGAAGCAAAAGGC the figure was 0.838; with GAGACCGCAACTGAAAAGTTGTTATCCTTGTCGTAAGACATTTGGATGGGTTGAAGTTCTGCACGTAGAAGCAAAAGGC, 0.794.
